Data published in US20080009025A1, “PROTEIN KINASE REGULATION” (priority 1999, published 2008).
Substitutions are numbered along the chain they refer to.

Assays:
PDK1-L155E = biological target: T1, PDK1-L155E (Homo sapiens, UniProt O15530, L155E); experiment: Phosphorylation of AGC kinase substrates by PDK1 (32P, PhosphoImager); assay type: biochemical; conditions: PKB[S473D] rate by PDK1-wt = 100; for Relative phosphorylation of PDK1 substrates PDK1-L155E +PIFtide: with PIFtide; for Relative phosphorylation of PDK1 substrates PDK1-L155E —: without PIFtide
T1 construct: made in house; host or cells: human embryonic kidney 293 cells
T1 sequence (O15530 1-556 L155E): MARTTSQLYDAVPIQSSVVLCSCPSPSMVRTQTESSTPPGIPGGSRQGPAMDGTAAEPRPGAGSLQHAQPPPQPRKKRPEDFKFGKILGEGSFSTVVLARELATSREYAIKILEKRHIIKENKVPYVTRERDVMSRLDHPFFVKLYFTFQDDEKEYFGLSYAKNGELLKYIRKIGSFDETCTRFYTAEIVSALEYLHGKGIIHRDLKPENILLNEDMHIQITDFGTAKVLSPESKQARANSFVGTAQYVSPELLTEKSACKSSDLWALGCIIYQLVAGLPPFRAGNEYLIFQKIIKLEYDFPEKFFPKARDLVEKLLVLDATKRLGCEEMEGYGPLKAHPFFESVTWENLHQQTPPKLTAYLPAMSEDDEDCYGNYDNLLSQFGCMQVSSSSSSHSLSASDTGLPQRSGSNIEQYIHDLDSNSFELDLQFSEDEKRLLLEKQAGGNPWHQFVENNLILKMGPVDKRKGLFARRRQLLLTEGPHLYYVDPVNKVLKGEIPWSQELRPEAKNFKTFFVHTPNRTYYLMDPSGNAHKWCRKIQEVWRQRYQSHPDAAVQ
Experimental: (§1) Phosphorylation of AGC kinase substrates by PDK1. The phosphorylation of PDK1 substrates was performed in a final volume of 20 μl in a buffer containing 50 mM Tris-HCl pH 7.5, 0.1% (by vol) 2-mercaptoethanol, 10 mM magnesium chloride, 100 μM [γ-^32P]ATP (˜1000 c.p.m./pmol), 0.5 μM microcystin-LR, 0.6 μM AGC kinase substrate and 0.6 to 30 nM wild type PDK1 or the indicated mutant of PDK1.
(§2) Relative phosphorylation of PDK1 substrates. PDK1 substrates were phosphorylated in vitro, subjected to SDS-PAGE, and radioactivity associated with the bands measured using a Phospho-Imager and known amounts of ATP as standard. The phosphorylation rate of PKB[S473D] in the presence of PtdIns (3,4,5)P3 was 2.6 mol/mol PDK1/min and was taken as the relative value of 100. Average values from a representative experiment performed in duplicates are shown.

PDK1-wt = biological target: T2, PDK1-wt (Homo sapiens, UniProt O15530); experiment: as above; assay type: biochemical; conditions: for Relative phosphorylation of PDK1 substrates PDK1-wt +PIFtide: with PIFtide; for Relative phosphorylation of PDK1 substrates PDK1-wt +PIFtide / Relative phosphorylation of PDK1 substrates PDK1-wt —: PKB[S473D] rate with PtdIns(3,4,5)P3 = 100; for Relative phosphorylation of PDK1 substrates PDK1-wt —: without PIFtide
T2 construct: made in house; host or cells: human embryonic kidney 293 cells
T2 sequence (O15530 1-556): T1 sequence (O15530 1-556 L155E) with E155L
Experimental: as §1, §2

p70 S6K = experiment: IGF1-induced activation and Thr412 phosphorylation of HA-p70 S6K in co-transfected 293 cells; assay type: cell-based, human; conditions: 293 cells
Experimental: FIG. 3. PIF inhibits p70 S6K activation and phosphorylation at Thr252 and Thr412. 293 cells were co-transfected with constructs expressing the wild type (wt) full length HA-p70 S6K (A) or the full length HA-T412E p70 S6K (B) with either GST-PIF, GST-F977A-PIF, or GST. 24 h post transfection the cells were serum starved for 16 h and them stimulated for 40 min with 100 nM IGF 1. The cells were lysed and HA-p70 S6K was immunoprecipitated and assayed as described in methods. Protein from each lysate (10 μg for the HA blots or 20 μg for the T412-P blot) was electrophoresed on a 10% SDS/polyacrylamide gel and immunoblotted using HA-antibody or the T412-P antibody. The T412-P antibody was incubated with either the synthetic peptide (10 μg/ml) corresponding to residues 401 to 418 of p70 S6K phosphorylated at Thr412 (phosph-412E peptide), or the unphosphorylated peptide (de-phospho-Thr412 peptide). The T412-P antibody consistently recognises a protein termed “non specific band” in cell lysates which migrate at (75 kDa) derived from non transfected and transfected cells. […] It is not co-immunoprecipitated with HA-p70 S6K (date not shown). The HA-p70 S6K activities shown are the average ±SEM for a single experiment carried out in triplicate. Similar results were obtained in 8 separate experiments (A) and 2 experiments (B). The immunoblotting was carried out in 3 separate experiments with similar results.
Transient Transfection Experiments. The DNA constructs encoding for the wild type and mutant forms of HA-p70 S6K in the pMT2 vector used in this study have been described previously. […] The constructs used to express GST-PIF and the mutant GST-F977A-PIF [22] are in the pEBG2T vector. The empty pEBG2T vector was used to express GST protein in control experiments. DNA constructs used in this study were purified from bacteria using the Qiagen plasmid Mega kit according to the manufacturer's protocol.
293 cells cultured on 10 cm diameter dishes in Dulbecco's Modified Eagle's Medium containing 10% (by vol) foetal bovine serum, were transfected with 2 μg of DNA construct encoding either wild type or mutant HA-p70 S6K or HA-PKBα, and 10 μg of DNA construct encoding either GST-PIF, GST-F977A-PIF, GST, Myc-PDK1, kinase-dead Myc-PDK1, or the empty pCMV5 vector using a modified calcium phosphate method. 24 h post transfection the cells were deprived of serum for 16 h, and exposed to IGF1 (100 nM) for the time indicated. The cells were lysed in 1 ml of lysis buffer (50 mM Tris/HCl pH 7.5, 1 mM EDTA, 1 mM EGTA, 1% (by vol) Triton X-100, 1 mM sodium orthovanadate, 10 mM sodium β-glycerophosphate, 50 mM NaF, 5 mM sodium pyrophosphate, 1 μM microcystin-LR, 0.27 M sucrose and protease cocktail tablets), cleared by centrifugation, and 50 μg of protein was subjected to immunoprecipitation with anti HA monoclonal antibody. The protein concentrations of the lysates were determined by the Bradford method.
Kinase assays. The HA-p70 S6K or HA-PKBα immunoprecipitates were washed and assayed for kinase activity using the peptide Crosstide (GRPRTSSFAEG) as described previously for PKBα [28]. One unit of activity, U, was that amount which catalysed the phosphorylation of 1 nmol of substrate in one minute.
Immunoblotting for dephosphorylated and Thr412-phosphorylated p70 S6 kinase. Cell lysates were made 1% SDS and the indicated amounts of protein were subjected to SDS/Polyacrylamide gel electrophoresis, subsequently transferred to nitrocellulose and immunoblotted using the indicated monoclonal antibody or the T412-P phospho-specific antibody (0.4 μg/ml) in 50 mM Tris/HCl pH7.5, 0.15M NaCl, 0.5% (by vol) Tween and 10% (by mass) skimmed milk. Detection was performed using the enhanced chemiluminescence reagent (Amersham Pharmacia Biotech).

| Relative phosphorylation of PDK1 substrates PDK1-L155E +PIFtide (PDK1-L155E) | Relative phosphorylation of PDK1 substrates PDK1-L155E — (PDK1-L155E) | phosphorylation rate (PDK1-wt; in the presence of PtdIns (3,4,5)P3) [mol/mol PDK1/min] | Relative phosphorylation of PDK1 substrates PDK1-wt +PIFtide (PDK1-wt) | Relative phosphorylation of PDK1 substrates PDK1-wt — (PDK1-wt) | Substance | HA-p70 S6K activity after IGF1 stimulation (p70 S6K; 100 nM IGF1 40 min) | IGF1-induced phosphorylation of HA-p70 S6K at Thr412 (p70 S6K; T412-P antibody) |
| --- | --- | --- | --- | --- | --- | --- | --- |
| 162 | 178 | 2.6 | 85.4 | 100 | FL-PKB 473D: full length PKBα with Ser473 mutated to Asp |  |  |
| 35 | 35 |  | 19.3 | 28 | FL-PKB: full length GST-tagged PKBα |  |  |
|  |  |  |  |  | GST-F977A-PIF: mutant form of GST-PIF which interacts with PDK1 weakly | substantially activated | still occurred but a lower level |
